B1: Angio-associated migratory cell protein (Homo sapiens), Q13685 (parent)
chain: MESESESGAAADTPPLETLSFHGDEEIIEVVELDPGPPDPDDLAQEMEDVDFEEEEEEEGNEEGWVLEPQEGVVGSMEGPDDSEVTFALHSASVFCVSLDPKTNTLAVTGGEDDKAFVWRLSDGELLFECAGHKDSVTCAGFSHDSTLVATGDMSGLLKVWQVDTKEEVWSFEAGDLEWMEWHPRAPVLLAGTADGNTWMWKVPNGDCKTFQGPNCPATCGRVLPDGKRAVVGYEDGTIRIWDLKQGSPIHVLKGTEGHQGPLTCVAANQDGSLILTGSVDCQAKLVSATTGKVVGVFRPETVASQPSLGEGEESESNSVESLGFCSVMPLAAVGYLDGTLAIYDLATQTLRHQCQHQSGIVQLLWEAGTAVVYTCSLDGIVRLWDARTGRLLTDYRGHTAEILDFALSKDASLVVTTSGDHKAKVFCVQRPDR
partner: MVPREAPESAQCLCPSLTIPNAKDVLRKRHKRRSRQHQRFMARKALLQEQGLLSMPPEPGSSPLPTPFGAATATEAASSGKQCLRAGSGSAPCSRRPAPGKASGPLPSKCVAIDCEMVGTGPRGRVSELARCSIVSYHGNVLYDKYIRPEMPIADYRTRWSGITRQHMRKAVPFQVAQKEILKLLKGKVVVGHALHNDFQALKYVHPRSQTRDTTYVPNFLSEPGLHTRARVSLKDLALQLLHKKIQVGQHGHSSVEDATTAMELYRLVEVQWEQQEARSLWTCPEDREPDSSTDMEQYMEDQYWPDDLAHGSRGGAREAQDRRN
B2: Histone-lysine N-methyltransferase SMYD1 (Homo sapiens), Q8NB12 (parent)
chain: MTIGRMENVEVFTAEGKGRGLKATKEFWAADIIFAERAYSAVVFDSLVNFVCHTCFKRQEKLHRCGQCKFAHYCDRTCQKDAWLNHKNECSAIKRYGKVPNENIRLAARIMWRVEREGTGLTEGCLVSVDDLQNHVEHFGEEEQKDLRVDVDTFLQYWPPQSQQFSMQYISHIFGVINCNGFTLSDQRGLQAVGVGIFPNLGLVNHDCWPNCTVIFNNGNHEAVKSMFHTQMRIELRALGKISEGEELTVSYIDFLNVSEERKRQLKKQYYFDCTCEHCQKKLKDDLFLGVKDNPKPSQEVVKEMIQFSKDTLEKIDKARSEGLYHEVVKLCRECLEKQEPVFADTNIYMLRMLSIVSEVLSYLQAFEEASFYARRMVDGYMKLYHPNNAQLGMAVMRAGLTNWHAGNIEVGHGMICKAYAILLVTHGPSHPITKDLEAMRVQTEMELRMFRQNEFMYYKMREAALNNQPMQVMAEPSNEPSPALFHKKQ
B3: Acetylcholine receptor subunit gamma (Homo sapiens), P07510 (parent)
chain: MHGGQGPLLLLLLLAVCLGAQGRNQEERLLADLMQNYDPNLRPAERDSDVVNVSLKLTLTNLISLNEREEALTTNVWIEMQWCDYRLRWDPRDYEGLWVLRVPSTMVWRPDIVLENNVDGVFEVALYCNVLVSPDGCIYWLPPAIFRSACSISVTYFPFDWQNCSLIFQSQTYSTNEIDLQLSQEDGQTIEWIFIDPEAFTENGEWAIQHRPAKMLLDPAAPAQEAGHQKVVFYLLIQRKPLFYVINIIAPCVLISSVAILIHFLPAKAGGQKCTVAINVLLAQTVFLFLVAKKVPETSQAVPLISKYLTFLLVVTILIVVNAVVVLNVSLRSPHTHSMARGVRKVFLRLLPQLLRMHVRPLAPAAVQDTQSRLQNGSSGWSITTGEEVALCLPRSELLFQQWQRQGLVAAALEKLEKGPELGLSQFCGSLKQAAPAIQACVEACNLIACARHQQSHFDNGNEEWFLVGRVLDRVCFLAMLSLFICGTAGIFLMAHYNRVPALPFPGDPRPYLPSPD
partner: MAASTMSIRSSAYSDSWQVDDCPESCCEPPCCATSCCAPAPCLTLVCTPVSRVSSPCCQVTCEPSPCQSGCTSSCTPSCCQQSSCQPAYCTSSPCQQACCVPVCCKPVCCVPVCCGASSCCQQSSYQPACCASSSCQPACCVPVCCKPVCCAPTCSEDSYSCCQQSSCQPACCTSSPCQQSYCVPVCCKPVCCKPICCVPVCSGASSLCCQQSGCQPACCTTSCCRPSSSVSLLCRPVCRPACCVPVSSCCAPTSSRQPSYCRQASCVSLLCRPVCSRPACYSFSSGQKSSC
B4: Abl interactor 2 (Homo sapiens), Q9NYB9 (parent)
chain: MAELQMLLEEEIPGGRRALFDSYTNLERVADYCENNYIQSADKQRALEETKAYTTQSLASVAYLINTLANNVLQMLDIQASQLRRMESSINHISQTVDIHKEKVARREIGILTTNKNTSRTHKIIAPANLERPVRYIRKPIDYTILDDIGHGVKWLLRFKVSTQNMKMGGLPRTTPPTQKPPSPPMSGKGTLGRHSPYRTLEPVRPPVVPNDYVPSPTRNMAPSQQSPVRTASVNQRNRTYSSSGSSGGSHPSSRSSSRENSGSGSVGVPIAVPTPSPPSVFPAPAGSAGTPPLPATSASAPAPLVPATVPSSTAPNAAAGGAPNLADGFTSPTPPVVSSTPPTGHPVQFYSMNRPASRHTPPTIGGSLPYRRPPSITSQTSLQNQMNGGPFYSQNPVSDTPPPPPPVEEPVFDESPPPPPPPEDYEEEEAAVVEYSDPYAEEDPPWAPRSYLEKVVAIYDYTKDKEDELSFQEGAIIYVIKKNDDGWYEGVMNGVTGLFPGNYVESIMHYSE
partner: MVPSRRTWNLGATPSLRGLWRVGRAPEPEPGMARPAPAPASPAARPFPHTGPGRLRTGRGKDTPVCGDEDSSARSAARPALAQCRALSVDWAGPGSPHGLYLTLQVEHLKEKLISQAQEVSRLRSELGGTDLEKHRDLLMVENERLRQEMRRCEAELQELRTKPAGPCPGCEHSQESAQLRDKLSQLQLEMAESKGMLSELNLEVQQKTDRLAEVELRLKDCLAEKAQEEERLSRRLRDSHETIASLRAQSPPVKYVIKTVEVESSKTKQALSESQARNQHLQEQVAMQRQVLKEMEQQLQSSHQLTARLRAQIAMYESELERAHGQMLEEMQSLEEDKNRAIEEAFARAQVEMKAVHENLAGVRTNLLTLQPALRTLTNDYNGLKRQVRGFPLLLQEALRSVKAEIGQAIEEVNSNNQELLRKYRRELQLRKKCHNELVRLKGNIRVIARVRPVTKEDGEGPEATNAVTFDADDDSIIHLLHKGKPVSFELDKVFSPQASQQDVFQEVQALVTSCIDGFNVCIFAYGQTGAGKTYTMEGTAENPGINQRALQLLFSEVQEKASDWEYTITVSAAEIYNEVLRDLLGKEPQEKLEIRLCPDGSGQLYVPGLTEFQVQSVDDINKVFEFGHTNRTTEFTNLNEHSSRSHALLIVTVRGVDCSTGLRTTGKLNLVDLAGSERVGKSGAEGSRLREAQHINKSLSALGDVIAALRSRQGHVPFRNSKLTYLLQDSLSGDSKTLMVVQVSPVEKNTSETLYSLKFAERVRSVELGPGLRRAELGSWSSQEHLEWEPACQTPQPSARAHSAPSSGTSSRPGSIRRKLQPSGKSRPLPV

Variants of: B1
Conditions: with aen_human AEN

Row | Variant | effect of a mutation on the interaction
1 | MESESESGAAADTPPLETLSFHGDEEIIEVVELDPGPPDPDDLAQEMEDVDFEEEEEEEGNEEGWVLEPQEGVVGSMEGPDDSEVTFALHSASVFCVSLDPKTNTLAVTGGEDDKAFVWRLSDGELLFECAGHKDSVTCAGFSHDSTLVATGDMSGLLKVWQVDTKEEVWSFEAGDLEWMEWHPRAPVLLAGTADGNTWMWKVPNGDCKTFQGPNCPATCGRVLPDGKRAVVGYEDGTIRIWDLKQGSPIHVLKGTEGHQGPLTCVAANQDGSLILTGSVDCQAKLVSATTGKVVGVFRPETVASQPSLGEGEESESNSVESLGFCSVMPLAAVGYLDGTLAFYDLATQTLRHQCQHQSGIVQLLWEAGTAVVYTCSLDGIVRLWDARTGRLLTDYRGHTAEILDFALSKDASLVVTTSGDHKAKVFCVQRPDR [I343F] | with no effect

Variants of: B2
Conditions: with bhe40_human BHLHE40, O14503
bhe40_human BHLHE40, O14503, sequence (O14503 whole entry): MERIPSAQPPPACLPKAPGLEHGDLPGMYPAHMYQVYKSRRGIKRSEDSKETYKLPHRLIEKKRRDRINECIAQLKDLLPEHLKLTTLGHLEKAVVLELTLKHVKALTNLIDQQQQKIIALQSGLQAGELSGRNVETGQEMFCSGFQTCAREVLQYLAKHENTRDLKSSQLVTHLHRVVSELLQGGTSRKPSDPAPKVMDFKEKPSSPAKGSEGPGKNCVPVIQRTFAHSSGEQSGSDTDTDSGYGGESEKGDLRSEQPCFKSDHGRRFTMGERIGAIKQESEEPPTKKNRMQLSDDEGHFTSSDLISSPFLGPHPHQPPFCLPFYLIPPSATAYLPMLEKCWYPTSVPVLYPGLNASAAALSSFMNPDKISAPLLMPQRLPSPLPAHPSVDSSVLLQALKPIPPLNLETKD

Row | Variant | effect of a mutation on the interaction
2 | MTIGRMENVEVFTAEGKGRGLKATKEFWAADIIFAERAYSAVVFDSLVNFVCHTCFKRQEKLHRCGQCKFAHYCDRTCQKDAWLNHKNECSAIKRYGKVPNENIRLAARIMWRVEREGTGLTEGCLVSVDDLQNHVEHFGEEEQKDLRVDVDTFLQYWPPQSQQFSMQYISHIFGVINCNGFTLSDQRGLQAVGVGIFPNLGLVNHDCWPNCTVIFNNGNHEAVKSMFHTQMRIELRALGKISEGEELTVSYIDFLNVSEERKRQLKKQYYFDCTCEHCQKKLKDDLFLGVKDNPKPSQEVVKEMIQFSKDTLEKIDKARSEGLYHEVVKLCRECLEKQEPVFADTNIYMLRMLSIVSEVLSYLQAFEEASFYARRMVDGYMKLYHPNNAQLGMAVMRAGLTNWHAGNIEVGHGMICKAYAILLVTHGPSHPITKDLEAMRVRTEMELRMFRQNEFMYYKMREAALNNQPMQVMAEPSNEPSPALFHKKQ [Q443R] | with no effect

Variants of: B3
Conditions: with kr109_human KRTAP10-9, P60411

Row | Variant | effect of a mutation on the interaction
3 | MHGGQGPLLLLLLLAVCLGAQGRNQEERLLADLMQNYDPNLRPAERDSDVVNVSLKLTLTNLISLNEREEALTTNVWIEMQWCDYRLRWDPRDYEGLWVLRVPSTMVWRPDIVLENNVDGVFEVALYCNVLVSPDGCIYWLPPAIFRSACSISVTYFPFDWQNCSLIFQSQTYSTNEIDLQLSQEDGQTIEWIFIDPEAFTENGEWAIQHRPAKMLLDPAAPAQEAGHQKVVFYLLIQRKPLFYVINIIAPCVLISSVAILIHFLPAKAGGQKCTVAINVLLAQTVFLFLVAKKVPETSQAVPLISKYLTFLLVVTILIVVNAVVVLNVSLRSPHTHSMARGVRKVFLRLLPQLLRMHVRPLAPAAVQDTQSRLQNGSSGWSITTGEEVALCLPRSELLFQQWQRQGLVAAALEKLEKGPELGLSQFCGSLKQAAPAIQACVEACNLTACARHQQSHFDNGNEEWFLVGRVLDRVCFLAMLSLFICGTAGIFLMAHYNRVPALPFPGDPRPYLPSPD [I448T] | with no effect

Variants of: B4
Conditions: with kifc3_human KIFC3, Q9BVG8

Row | Variant | effect of a mutation on the interaction
4 | E202K | with no effect
